Laboratory results reported in US11692007B2, “Amino deprotection using 3-(diethylamino)propylamine” (priority 2021, dated 2023).
Like-named read-outs stand apart in the source and are kept apart here. Marks after values point to notes of the source that are not given here. Non-standard residues stand in square brackets, D forms with d. Residues, ends and D or L forms follow the SMILES beside them. *: point of attachment. dPhe(4-NHCONH2) = NC(=O)Nc1ccc(C[C@@H](N)C(=O)O)cc1; Dihydroorotyl(S) = O=C1C[C@@H](C(=O)*)NC(=O)N1; dPhe(4-Cl) = N[C@H](Cc1ccc(Cl)cc1)C(=O)O; Phe(4-NH2) = Nc1ccc(C[C@H](N)C(=O)O)cc1; d2Nal = N[C@H](Cc1ccc2ccccc2c1)C(=O)O; Lys(iPr) = CC(C)NCCCC[C@H](N)C(=O)O; d3Pal = N[C@H](Cc1cccnc1)C(=O)O

What was measured:
[1] = system: rat; conditions: in vivo; cited from earlier work
[2] = for Hydantoin impurity (VI) at RRT 1.03 / purity (HPLC) / specified impurity RRT 0.85 (X, unknown): RT; for Hydantoin impurity (VI) at RRT 1.03: at both t0 and t3 (24 h); for specified impurity RRT 0.85 (X, unknown): not present at t0
Description: Degarelix was kept in a solution of 10% DEAPA in DMF for 24 h to simulate conditions corresponding to those used for removal of Fmoc group during full SPPS. Samples were analyzed by HPLC at four checkpoints up to 24 h and the four HPLC profiles obtained were compared as shown in FIG. 3 and FIG. 4 (for detailed experimental procedure, see Example 7).
Example 7: HPLC analyses were performed on Agilent 1260 Infinity II system, using columns Waters Cortecs C18 2.7 μm, 4.6×150 mm; temperature: 30° C.; injection volume: 10 μL, UV: 245 nm; pH 5.5 Phosphate Buffer: 25 mM Potassium Phosphate to pH 5.5; pH 3.5 Phosphate Buffer: 25 mM Potassium Phosphate to pH 3.5; mobile phases: 75% pH 5.5 Buffer: 25% CH3CN (A); 65% pH 3.5 Buffer: 35% CH3CN (B); flow: 1.0 mL/min, sample concentration 0.5 mg/ml; gradient: 0-5 min 0% B, 5-45 min […], 45-46 min 100-0% B, 46-60 min 0% B.
The stability at RT was followed for 24 h at four check points, i.e. t0, 1 h (t1), 4 h (t2) and 24 h (t3).
Superimposed HPLC profiles are shown in FIG. 3 (Test 1) and FIG. 4 (Test 2).

[3] = Description: A sample of Degarelix, as a lyophilized powder of about 99% of purity, was dissolved at a concentration of 17 g/L in DMF with 10% of piperidine, TMG, TBA or DEAPA. The stability at RT was measured by HPLC at t=0 (t0), t=8 hr (t1), and t=24 hr (t3) using an Agilent 1260 Infinity II system, using a column Waters Xterra Shield RP18, 3.5 μm, 4.6×150 mm; temperature: 25° C.; sample concentration 0.5 mg/mL; injection volume: 10 μL; flow: 0.7 mL/min; buffer: 65% 40 mM ammonium acetate, pH 10:35% ACN; elution: isocratic, 0-30 min 100% buffer; detection: UV 245 nm.
[4] = system: rats; conditions: acute oral toxicity; cited from earlier work
[5] = system: rabbits; conditions: acute oral toxicity; cited from earlier work
[6] = system: mice; conditions: acute oral toxicity; cited from earlier work
[7] = Stress stability test of resin-bound H-Ala-Lys-Asp-Gly-Tyr-Ile-OH with piperidine, DEAPA, TMG and TBA in DMF or NBP (aspartimide formation, HPLC); assay type: physicochemical
Description: A stress test was then performed whereby the model peptide was submitted to basic conditions to simulate repeated alpha-amino deprotection cycles. Resin-bound H-Ala-Lys-Asp-Gly-Tyr-Ile-OH (still bearing side-chain protections) was treated in parallel with 20% piperidine, 10% DEAPA, 5% TMG or 20% TBA solutions, in DMF or NBP, for 4 h at RT.
As shown in Scheme 2 above, the formation of the aspartimide side-product may be followed by nucleophilic attack onto the aspartimide ring with formation of further by-products, like amine-adducts (amine-mediated ring-opening) and alpha- and beta-peptides (water-mediated ring-opening).
The hexapeptide samples obtained after such treatments with the Fmoc cleavage solutions were analyzed by HPLC and the results are shown in Table 1 (for detailed experimental procedure, see Example 6).
In Table 1, Δ Asp indicates the amount of additional overall aspartimide impurities (comprising piperidides by-products) resulting from the stress test relative to the initial aspartimide amount (2.6%).
Examples 1-6: HPLC-MS analyses were performed on Agilent 1260 Infinity II system coupled to an electrospray ionization mass spectrometer (positive-ion mode, m/z=100-1500, fragmentor 30 V), using columns Agilent Zorbax-SB-C18 5 μm, 250×4.6 mm or Phenomenex Luna C18 5 μm, 250×4.6 mm; temperature: 25° C.; injection volume: 10 μL, UV: 220 nm, mobile phases: H2O+0.08% TFA (A) and CH3CN+0.08% TFA (B), flow: 0.5 mL/min or 1.0 mL/min.
100 mg of dry resin H-Ala-Lys-Asp-Gly-Tyr-Ile-Trt-PS (prepared as described in Example 2) were swelled in 2 mL of DMF or NBP for 30 minutes. The resin was filtered and a 2 mL solution of 10% DEAPA (or 20% piperidine, 5% TMG, 20% TBA) in DMF or NBP was added to the resin and stirred for 4 hours at RT. The resin was filtered, washed with DMF or NBP (3×2 mL) and with DCM (3×2 mL). Dry peptide resin was suspended in 3 mL of the mixture TFA/TIS/H2O (90/5/5 v/v/v) and stirred for 2 h. The resin was filtered off and diisopropylether (10 mL) cooled to 4° C. was added to the solution. The peptide was filtered and dried in vacuo to obtain crude H-Ala-Lys-Asp-Gly-Tyr-Ile-OH (II) and aspartimide impurity (III) in different ratios according to the used conditions.
Table 1 in the description lists the results. ΔAsp indicates the difference between the aspartimide amount formed after stress tests (including piperidides if present) and that arising from the hexapeptide synthesis (2.6%, see Example 2).
HPLC-MS analysis gradient: 0-30 min 10-40% B; flow: 0.5 mL/min.

[8] = Test 1, about 170 g/L in DMF with 10% DEAPA, t3 (24 h)
[9] = Test 2, about 17 g/L in DMF with 10% DEAPA, t3 (24 h)
[10] = 24 hr at RT, 10% DEAPA in DMF, 17 g/L
[11] = 24 hr at RT, 10% TBA in DMF, 17 g/L
[12] = 24 hr at RT, 10% TMG in DMF, 17 g/L
[13] = 24 hr at RT, 10% piperidine in DMF, 17 g/L
[14] = duration 0, base solution none, 17 g/L in DMF
[15] = 10% DEAPA in DMF, 4 h at RT, resin-bound
[16] = 10% DEAPA in NBP, 4 h at RT, resin-bound
[17] = 20% TBA in DMF, 4 h at RT, resin-bound
[18] = 20% TBA in NBP, 4 h at RT, resin-bound
[19] = 20% piperidine in DMF, 4 h at RT, resin-bound
[20] = 20% piperidine in NBP, 4 h at RT, resin-bound
[21] = starting point, after synthesis in DMF with 20% pip, before stress test

## CCN(CC)CCCN [DEAPA, 3-(diethylamino)propylamine]
[1]
  LD50: 830 mg/kg

## CC(=O)N[C@H](Cc1ccc2ccccc2c1)C(=O)N[C@H](Cc1ccc(Cl)cc1)C(=O)N[C@H](Cc1cccnc1)C(=O)N[C@@H](CO)C(=O)N[C@@H](Cc1ccc(NC(=O)[C@@H]2CC(=O)NC(=O)N2)cc1)C(=O)N[C@H](Cc1ccc(NC(N)=O)cc1)C(=O)N[C@@H](CC(C)C)C(=O)N[C@@H](CCCCNC(C)C)C(=O)N1CCC[C@H]1C(=O)N[C@H](C)C(N)=O [Degarelix, Ac-D-Nal-D-Cpa-D-Pal-Ser-Aph(Hor)-D-Aph(Cbm)-Leu-Lys(iPr)-Pro-D-Ala-NH2] (Ac-[d2Nal][dPhe(4-Cl)][d3Pal]S[Phe(4-NH2)](Dihydroorotyl(S))[dPhe(4-NHCONH2)]L[Lys(iPr)]P[dA]-NH2)
[2]; 10% DEAPA in DMF, up to 24 h
  degradation of degarelix: No significant degradation
  increase of hydantoin impurity: no increase
[2]; Test 1, about 170 g/L in DMF with 10% DEAPA
  Hydantoin impurity (VI) at RRT 1.03: 0.10%
[2]; Test 1, about 170 g/L in DMF with 10% DEAPA, t0
  purity (HPLC): 99.17%
[2]; [8]
  purity (HPLC): 99.10%
  specified impurity RRT 0.85 (X, unknown): 0.06%
[2]; Test 2, about 17 g/L in DMF with 10% DEAPA
  Hydantoin impurity (VI) at RRT 1.03: 0.09%
[2]; Test 2, about 17 g/L in DMF with 10% DEAPA, t0
  purity (HPLC): 99.18%
[2]; [9]
  purity (HPLC): 99.10%
  specified impurity RRT 0.85 (X, unknown): 0.04%
[3]; [10]
  Degarelix %: 99.97%
  Hydantoin VI %: 0.03%
[3]; [11]
  Degarelix %: 99.96%
  Hydantoin VI %: 0.04%
[3]; [12]
  Degarelix %: 98.7%
  Hydantoin VI %: 1.3%
[3]; [13]
  Degarelix %: 99.96%
  Hydantoin VI %: 0.04%
[3]; after 24-hours treatment with DEAPA (10% in DMF)
  amount of hydantoin impurity (VI): unchanged
[3]; [14]
  Degarelix %: 99.97%
  Hydantoin VI %: 0.03%

## C1CCNCC1 [piperidine]
[4]
  LD50: 400 mg/kg
[5]
  LD50: 145 mg/kg
[6]
  LD50: 30 mg/kg

## H-Ala-Lys-Asp-Gly-Tyr-Ile-OH (H-AKDGYI-OH) [III]
[7]; 5% TMG in DMF, 4 h at RT, resin-bound
  Aspartimide (IV) (A %): 85.5 A %
[7]; 5% TMG in DMF, 4 h at RT, resin-bound, sum of alpha- and beta-peptide
  III (A %): 14.5^a A %
[7]; 5% TMG in DMF, 4 h at RT, relative to initial 2.6%
  Δ Asp (A %): 82.9 A %
[7]; 5% TMG in NBP, 4 h at RT, resin-bound
  Aspartimide (IV) (A %): 72.9 A %
[7]; 5% TMG in NBP, 4 h at RT, resin-bound, sum of alpha- and beta-peptide
  III (A %): 27.1^a A %
[7]; 5% TMG in NBP, 4 h at RT, relative to initial 2.6%
  Δ Asp (A %): 70.3 A %
[7]; [15]
  Aspartimide (IV) (A %): 10.1 A %
  III (A %): 89.9 A %
[7]; 10% DEAPA in DMF, 4 h at RT, relative to initial 2.6%
  Δ Asp (A %): 7.5 A %
[7]; [16]
  Aspartimide (IV) (A %): 4.2 A %
  III (A %): 95.8 A %
[7]; 10% DEAPA in NBP, 4 h at RT, relative to initial 2.6%
  Δ Asp (A %): 1.6 A %
[7]; [17]
  Aspartimide (IV) (A %): 29.3 A %
  III (A %): 70.7 A %
[7]; 20% TBA in DMF, 4 h at RT, relative to initial 2.6%
  Δ Asp (A %): 26.7 A %
[7]; [18]
  Aspartimide (IV) (A %): 20.0 A %
  III (A %): 80.0 A %
[7]; 20% TBA in NBP, 4 h at RT, relative to initial 2.6%
  Δ Asp (A %): 17.4 A %
[7]; [19]
  Aspartimide (IV) (A %): 7.2 A %
  III (A %): 86.5 A %
  Piperidides (V) (A %): 6.3 A %
[7]; 20% piperidine in DMF, 4 h at RT, additional aspartimide impurities incl. piperidides relative to initial 2.6%
  Δ Asp (A %): 10.9 A %
[7]; [20]
  Aspartimide (IV) (A %): 7.1 A %
  III (A %): 90.0 A %
  Piperidides (V) (A %): 2.9 A %
[7]; 20% piperidine in NBP, 4 h at RT, incl. piperidides, relative to initial 2.6%
  Δ Asp (A %): 7.4 A %
[7]; [21]
  Aspartimide (IV) (A %): 2.6 A %
  III (A %): 97.4 A %
